The values that follow are results of earlier work, collected in patent US20060275806.

Where two headings read alike, the source gives them in different places.

Series [1] has as its system MDBP2 (methylated DNA binding protein 2). Conditions: method not given.
The next series deals with MLL MT domain. The settings on record: method not given.

In the case of DNA with single fully methylated CpG, the Kd in series [1] (5mC at CpG, both strands, error 0.08 nM) was 2.7 nM. In the case of unmethylated CpG DNA, in the series with MLL MT domain, the dissociation constant (Kd) was 33 nM.

Consider non-specific DNA, for which the Kd in series [1] (error 46.8 nM) is 189 nM.

A word on the Kd: it is the free concentration of one partner at which half of the binding sites on the other are occupied at equilibrium, for simple one-to-one binding.
